{
  "source": "patent US8304519B2",
  "about": "“Compositions and methods for modulating dopamine neurotransmission” (Centre for Addiction and Mental Health, priority 2005, dated 2012)",
  "key": {"[1]": {"target": "T1, D2-DAT direct interaction (Homo sapiens, UniProt P14416)", "T1 construct": "made in house; host or cells: bacteria (GST fusion, pGEX4T-3)", "T1 sequence (P14416 271-373)": "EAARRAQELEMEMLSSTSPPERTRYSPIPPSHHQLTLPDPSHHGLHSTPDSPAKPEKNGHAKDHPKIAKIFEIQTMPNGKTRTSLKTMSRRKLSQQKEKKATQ", "test": "In vitro binding assay, blockade of GST-DAT[NT1] binding to [35S]-D2[IL3-2] by peptides", "settings": "co-incubation with purified peptide", "procedure": "(§1) Glutathione beads carrying GST fusion proteins (DAT[NT1] (SEQ ID NO:7), DAT[NT2] (SEQ ID NO:9), DAT[NT3] (SEQ ID NO: 10)) or GST (10-20 μg each) alone was incubated with [35S]-methionine-labelled D2[IL3-2] probe (SEQ ID NO:3) respectively. The beads were then washed 4-6 times with PBS containing 0.5% Triton X-100 and eluted with 10 mM glutathione elution buffer. Eluates were separated by SDS-PAGE and visualized by autoradiography."}, "[35S]-D2[IL3-2]": {"target": "T2, [35S]-D2[IL3-2] (Homo sapiens, UniProt P14416)", "T2 construct": "made in house", "T2 sequence (P14416 271-373)": "T1 sequence (P14416 271-373)", "test": "In vitro binding assay of GST-DAT fusion proteins with [35S]-D2[IL3-2] probe", "settings": "autoradiography", "procedure": "as §1"}, "D2 receptor [2]": {"target": "T3, D2 receptor (Homo sapiens, UniProt P14416)", "T3 sequence (P14416 1-414 isoform P14416-2)": "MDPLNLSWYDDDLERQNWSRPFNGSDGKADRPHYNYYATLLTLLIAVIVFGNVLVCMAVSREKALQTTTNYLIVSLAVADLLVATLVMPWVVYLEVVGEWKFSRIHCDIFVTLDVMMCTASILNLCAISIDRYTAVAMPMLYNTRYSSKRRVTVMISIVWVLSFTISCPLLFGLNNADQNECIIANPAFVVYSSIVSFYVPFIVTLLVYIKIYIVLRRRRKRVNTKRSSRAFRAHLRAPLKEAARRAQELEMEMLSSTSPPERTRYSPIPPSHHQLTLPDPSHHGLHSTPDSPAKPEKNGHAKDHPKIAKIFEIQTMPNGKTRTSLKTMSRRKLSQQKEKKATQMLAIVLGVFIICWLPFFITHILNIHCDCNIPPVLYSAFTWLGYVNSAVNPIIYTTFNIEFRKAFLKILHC", "assay_type": "cell-based", "set-up": "expressed in transfected cells; host or cells: HEK-293 cells co-expressing D2 and DAT", "settings": "pre-incubation 150-200 ng/ml, HEK-293 cells co-expressing D2 and DAT", "procedure": "Measurement of DA uptake was performed on intact cells as previously described (30). Briefly, 2-4 days following transfection in 24-well plates (˜2×10^5 cells seeded per well) medium was removed and wells were rinsed with 0.5 mL of uptake buffer (5 mM Tris, 7.5 mM HEPES, 120 mM NaCl, 5.4 mM KCl, 1.2 mM CaCl2, 1.2 mM MgSO4, 1 mM ascorbic acid, 5 mM glucose, pH 7.1). […] Wells were rinsed twice with 0.5 mL of uptake buffer and cells were solubilized in 0.5 mL of 1% SDS and collected to measure incorporated radioactivity using a Beckman liquid scintillation counter (LS 6000SC)."}, "D2 receptor [3]": {"target": "T3, D2 receptor", "test": "cAMP accumulation in cells co-expressing D2 with DAT", "assay_type": "cell-based", "set-up": "expressed in transfected cells; host or cells: HEK-293 cells co-expressing D2 and DAT", "settings": "data not shown"}, "D2 receptor [4]": {"target": "T3, D2 receptor", "test": "DA uptake on D2 activation in cultured midbrain neurons infected with D2 and DAT adenoviruses", "assay_type": "cell-based, rat", "set-up": "expressed in transfected cells; host or cells: primary rat midbrain neuronal cultures, adenoviral infection", "procedure": "(§2) Measurement of DA uptake was performed on intact cells as previously described (30). Briefly, 2-4 days following transfection in 24-well plates (˜2×10^5 cells seeded per well) medium was removed and wells were rinsed with 0.5 mL of uptake buffer (5 mM Tris, 7.5 mM HEPES, 120 mM NaCl, 5.4 mM KCl, 1.2 mM CaCl2, 1.2 mM MgSO4, 1 mM ascorbic acid, 5 mM glucose, pH 7.1). Cells were then preincubated in duplicate with the indicated concentrations of dopaminergic agents (10^−13 to 10^−4 M) 5 min prior to the addition of 0.25 mL of 20 nM [3H]DA (final concentration) and incubated for 10 min at room temperature in a total volume of 0.5 mL. Nonspecific [3H] DA (37-53 Ci/mmol) uptake was defined in the presence of 10 μM mazindol. Wells were rinsed twice with 0.5 mL of uptake buffer and cells were solubilized in 0.5 mL of 1% SDS and collected to measure incorporated radioactivity using a Beckman liquid scintillation counter (LS 6000SC).\n(§3) Midbrain cultures from postnatal day 2 rats are prepared by dissection of ventrolateral sections of the mesencephalon (avoiding medial tissue regions) in ice-cold HBSS. […] The single cell suspensions are counted with a hemocytometer for plating at desired densities onto poly-D-Lysine (100 ug/mL) coated tissue culture plates of varying formats or, onto coated glass cover-slips for microscopy. […]"}, "D2 receptor [5]": {"target": "T3, D2 receptor", "test": "Cell-ELISA of DAT membrane expression on D2 activation in cultured midbrain neurons", "assay_type": "cell-based, rat", "set-up": "expressed in transfected cells; host or cells: primary rat midbrain neuronal cultures, adenoviral infection", "settings": "cultured midbrain neurons infected with D2 and DAT adenoviruses", "procedure": "Cell-ELISA assays (colorimetric assays) were done essentially as previously described (Lee et al., 2002a). Neurons or HEK-293T cells were transiently transfected with the indicated cDNA constructs by the Lipofectamine 2000 (InVitrogen) method (6-10 μg of each indicated cDNA per 7.5×10^6 cells), and equally distributed to two 6-well plates (35 mm/well), and grown for 2-4 days. The same density of co-transfected cells were fixed in 4% paraformaldehyde for 10 min in the absence (non-permeabilized conditions) or the presence (permeabilized conditions) of 1% Triton X-100. Cells were incubated with DAT antibody against the extracellular loop (Chemicon) for the purpose of labeling the proteins on the cell surface under non-permeabilized conditions or the entire transporter pool under permeabilized conditions. […] The cell surface expression of DAT was presented as the ratio of colorimetric readings under non-permeabilized conditions to those under permeabilized conditions. […]\nas §3"}, "[6]": {"settings": "systemically injected; cited from earlier work"}, "D2-DAT coupling": {"target": "T4, D2-DAT coupling (Homo sapiens, UniProt P14416)", "T4 construct": "expressed in transfected cells; host or cells: primary rat midbrain neuronal cultures, adenoviral infection", "T4 sequence (P14416 1-414 isoform P14416-2)": "as above", "test": "[3H]DA uptake in rat midbrain primary cultures infected with DAT and D2 adenovirus", "assay_type": "cell-based", "settings": "10 μM for 30 minutes, cultured neurons", "procedure": "as §2, with “Cells were then preincubated in duplicate with the indicated concentrations of dopaminergic agents (10^−13 to 10^−4 M) 5 min prior to the addition of 0.25 mL of 20 nM [3H]DA” left out\nas §3, with “HBSS. Tissue is placed in cold neurobasal/B27 medium (Invitrogen) supplemented with 0.5 mM L-glutamine, and 10 ng/mL bFGF (culture medium).” for “HBSS.”"}, "[7]": {"test": "Amphetamine-induced hyper-locomotor activity", "assay_type": "in vivo", "settings": "ip injection, 3 nmol/g", "procedure": "Tests of locomotor activity were conducted in four clear Plexiglas activity chambers (Med Associates Inc., St Albans, Vt.) measuring 43 cm long, 43 cm wide, and 30 cm high. An array of 16×16 photodetectors, spaced 2.5 cm apart, and positioned 2.5 cm above the floor of the chamber was used to detect horizontal locomotor activity as distance traveled. Prior to testing, all mice were first habituated to the apparatus by placing them in the activity chambers for 1 h on three consecutive days. On test days, mice were placed in the activity chamber for 1 h prior to receiving an IP injection of TAT (SEQ ID NO:14), TAT-DAT[NT1-1] (SEQ ID NO:12), or TAT-DAT[NT1-2] peptide (SEQ ID NO: 13). Locomotor activity was then measured for the next 180 min."}},
  "data": [
    {"substance": "DAT[NT1-1] (M1-V15) peptide: purified peptide DAT M1-V15, MSKSKCSVGLMSSVV (SEQ ID NO:2) (Human dopamine transporter protein (DAT[NT1-1] M1-V15))", "values": [
      {"measurement": "disruption of the interaction between [35S]-D2[IL3-2] and GST fused DAT[NT1]", "setting": "[1]", "value": "disrupted"}
    ]},
    {"substance": "GST fused DAT[NT1]: GST fusion protein encoding DAT M1-P26, MSKSKCSVGLMSSVVAPAKEPNAVGP (SEQ ID NO:7)", "values": [
      {"measurement": "hybridization (direct binding) with [35S]-D2[IL3-2]", "setting": "[35S]-D2[IL3-2]", "value": "hybridized"}
    ]},
    {"substance": "pertussis toxin (PTX)", "values": [
      {"measurement": "blockade of quinpirole-induced decrease in DAT-mediated DA uptake", "setting": "D2 receptor [2]", "value": "blocked"},
      {"measurement": "functional block of the ability of the D2 receptor to inhibit cAMP accumulation", "setting": "D2 receptor [3]", "value": "confirmed"},
      {"measurement": "blockade of inhibition of DAT-mediated DA uptake by activation of D2 receptor", "setting": "D2 receptor [4]", "value": "blocked"},
      {"measurement": "blockade of inhibition of DAT membrane expression by activation of D2 receptor", "setting": "D2 receptor [5]", "value": "blocked"}
    ]},
    {"substance": "Tyr-Gly-Arg-Lys-Lys-Arg-Arg-Gln-Arg-Arg-Arg [TAT peptide]", "values": [
      {"measurement": "time after IP injection at which the blood-brain barrier is penetrated", "setting": "[6]", "value": 1, "unit": "h"}
    ]},
    {"substance": "TAT-DAT[NT1-2] peptide: DAT[NT1-2] (A16-P26) peptide fused to HIV-1 TAT cell-membrane transduction domain (SEQ ID NO:13) (YGRKKRRQRRRAPAKEPNAVGP; HIV virus type 1 TAT protein fused to human dopamine transporter protein (TAT-DAT[NT1-2]))", "values": [
      {"measurement": "DAT-mediated DA uptake", "setting": "D2-DAT coupling", "value": "did not produce any effects"},
      {"measurement": "behavioural effects of amphetamine (hyper-locomotor activity)", "setting": "[7]", "value": "reduce"}
    ]}
  ]
}
